T1: EWS-FLI1 (UniProt F1JVV7)
T1 chain: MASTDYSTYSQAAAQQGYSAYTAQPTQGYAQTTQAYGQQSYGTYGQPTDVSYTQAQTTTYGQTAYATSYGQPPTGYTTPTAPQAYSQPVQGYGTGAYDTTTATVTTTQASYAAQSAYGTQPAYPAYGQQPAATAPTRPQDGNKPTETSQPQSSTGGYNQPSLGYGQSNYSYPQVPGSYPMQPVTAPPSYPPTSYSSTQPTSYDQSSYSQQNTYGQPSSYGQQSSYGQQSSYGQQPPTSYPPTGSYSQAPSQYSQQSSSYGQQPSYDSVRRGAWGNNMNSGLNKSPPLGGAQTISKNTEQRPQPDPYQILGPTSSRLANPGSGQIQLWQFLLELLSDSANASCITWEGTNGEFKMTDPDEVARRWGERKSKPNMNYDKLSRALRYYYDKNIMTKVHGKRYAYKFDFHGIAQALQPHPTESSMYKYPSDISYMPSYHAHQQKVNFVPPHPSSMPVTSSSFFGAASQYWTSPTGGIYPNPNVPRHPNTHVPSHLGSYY

B1: mut ets-DNA (GGAA to GCTA) (dsDNA)
DNA 1: ATGTAGACCGCTAGTAACTA
DNA 2: TAGTTACTAGCGGTCTACAT
B2: wt ets-DNA (dsDNA)
DNA 1: ATGTAGACCGGAAGTAACTA
DNA 2: TAGTTACTTCCGGTCTACAT

What was measured:
[1] = target: T1, EWS-FLI1; experiment: competition; 30 nM EWS-FLI1, competes with 32P HDV RNA (N1?); EMSA: 25 mM HEPES pH 7.4, 80 mM NaCl, 2 mM MgCl2, 2 mM DTT, Superase In, 5 pmol 32P-RNA, 10 min room temperature, 6% native PAGE 0.5x TBE; AFM: 25 mM HEPES pH 7.4, 2 mM MgCl2, 1 mM TCEP, 25 C, 1 min; settings: protein: recombinant; blunt
[2] = target: T1, EWS-FLI1; experiment: as above; settings: protein: recombinant; blunt

Row | Binder | binding signal [1] | binding result [2]
1 | B1 | 30 % of wild-type efficiency at displacing RNA | 
2 | B2 |  | binds

Reference: paper PMC4333382, “RNA helicase A activity is inhibited by oncogenic transcription factor EWS-FLI1” (Nucleic Acids Research, 2015)
